Here are results for 36 sequences from the supplement of paper PMC10567573.

± gives the standard deviation.

The series in a line: protein stability index of a GFP-peptide fusion (GPS, HEK-293T) (PSI 1-6); higher = more stable. As to conditions: c terminus: a fixed tail appended.
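Further: 24-mer peptide tiles fused after GFP, lentivirally expressed, FACS-sorted into six equal bins by GFP/DsRed ratio, decoded by Illumina sequencing, PSI is the read-weighted mean bin number.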

With HLVIQNLFEGMIWFLVPISSVICN [CDS1], the protein stability index came out at 2.96 ± 0.2 (treatment: DMSO) and 3.25 ± 0.41 (treatment: MLN4924 1 uM, 8 h).
In the same order, the values of HLYPADFRFDKPKKSRSPASAEAP [ZNF511] are 3.38 ± 0.52 and 3.83 ± 0.45.
In turn, HPDIFLPSEICDRLVNEYVELVNA [ZER1] displayed a protein stability index (treatment: DMSO) of 2.56 ± 0.17 and a protein stability index (treatment: MLN4924 1 uM, 8 h) of 2.97 ± 0.35.
For HPGEHEVGEPEFHYIAGAHGNEVL [CPXM2], in that order: 5.1 ± 0.29 and 4.98 ± 0.31.
Regarding HPLPTVIIVNLLWFIHLVFVVLAF [TMEM192], the protein stability index is, setting by setting: (treatment: DMSO) 3.37 ± 0.063; (treatment: MLN4924 1 uM, 8 h) 3.02 ± 0.7.
For HQRIPQSVRILGSLVAILLVFLIT [SLC29A1], in that order: 2.1 ± 0.37 and 2.33 ± 0.25.
For HRVLQRLEQRRQQASEREAPSIEQ [FCHSD1], in that order: 5.09 ± 0.25 and 4.99 ± 0.26.
In the same order, the values of HSLYRRTGASFQKAQQEFAAGVFS [SCAMP3] are 2.81 ± 0.14 and 2.85 ± 0.14.
For the sequence HTKELEDKVIELHKSHRGMTPAEA [EPB41L3], the protein stability index (treatment: DMSO) worked out at 5.2 ± 0.24 and the protein stability index (treatment: MLN4924 1 uM, 8 h) is 5.13 ± 0.16.
Turning to HVHDPHGQVIWGMSWAKLARQATN [FBXO39], the protein stability index (treatment: DMSO) was determined as 2.58 ± 0.32 and the protein stability index (treatment: MLN4924 1 uM, 8 h) is 2.94 ± 0.21.
With IAGNKCDLIDVREVMERDAKDYAD [RAB22A], the protein stability index came to 4.98 ± 0.22 (treatment: DMSO) and 5.06 ± 0.11 (treatment: MLN4924 1 uM, 8 h).
With IARDQTKSIVEKIQAKLPGIAKKK [RTN3], the protein stability index (treatment: DMSO) is 3.8 ± 0.15 and the protein stability index (treatment: MLN4924 1 uM, 8 h) came to 3.75 ± 0.32.
With ICLMCVHSLERAGSKQYSAAIAFT [SMG5], the protein stability index (treatment: DMSO) is 2.58 ± 0.33 and the protein stability index (treatment: MLN4924 1 uM, 8 h) stood at 2.42 ± 0.78.
For ICYLPHWMMQNLLLEEGGLVQVES [UFD1], in that order: 2.65 ± 0.34 and 2.7 ± 0.5.
As to IDKGDIPDLTQAPSSLMETLEQHL [SNAP91], the protein stability index (treatment: DMSO) came out at 4.11 ± 0.22 and the protein stability index (treatment: MLN4924 1 uM, 8 h) is 4.08 ± 0.33.
For IDPLLYMTEWFMCAFSRTLPWSSV [TBC1D10A], in that order: 3.43 ± 0.23 and 3.16 ± 0.27.
For IEIATYRKLLEGEESRISVPVHSF [PRPH], in that order: 2.47 ± 0.26 and 2.47 ± 0.21.
For IEIEDEAEKWQKEKDRIKSFTTNE [TRIM29], in that order: 4.94 ± 0.17 and 4.96 ± 0.16.
On to IELANIRDEVAFHTAKCEKLQKEK [MTUS2], for which the protein stability index reads like this: (treatment: DMSO) 4.31 ± 0.3; (treatment: MLN4924 1 uM, 8 h) 4.46 ± 0.44.
For IELLTGETWNPFKLQYQLRNVRER [GOLPH3L], the protein stability index (treatment: DMSO) stood at 2.29 ± 0.27 and the protein stability index (treatment: MLN4924 1 uM, 8 h) amounted to 2.49 ± 0.21.
For IFRSYSRGAQGILLVYDITNRWSF [RAB40C], in that order: 2.52 ± 0.7 and 2.61 ± 0.73.
For IFSVLNSDDAAAPALETQPQGDEE [SMOC2], in that order: 5.22 ± 0.23 and 5.29 ± 0.44.
In the same order, the values of IHKGEKPYQCSQCSKSYSRRSFLI [ZSCAN9] are 2.46 ± 0.75 and 2.12 ± 0.42.
Sequence IIDSSLEDITYVLKPTFTKQQIAN [USP39] came in with a protein stability index (treatment: DMSO) of 2.69 ± 0.26 and a protein stability index (treatment: MLN4924 1 uM, 8 h) of 2.8 ± 0.24.
In the same order, the values of IIPQVPLFNILAKFNGITEKEYKT [USP39] are 2.41 ± 0.28 and 2.49 ± 0.28.
For IKIFKYISFNKTMTQLSSTLARCA [PKD2L1], in that order: 2.37 ± 0.15 and 2.26 ± 0.19.
In the same order, the values of IKIRPGEFEQFESTIGFKLPNHRA [EPB41L3] are 2.64 ± 0.03 and 2.75 ± 0.63.
For IKLIDFGIAHKIEAGNEFKNIFGT [DAPK3], the protein stability index by setting is: (treatment: DMSO) 2.47 ± 0.31; (treatment: MLN4924 1 uM, 8 h) 2.32 ± 0.21.
IKMMQAVRQAFQDQDDRRTWDGRP [GFOD1] gave a protein stability index (treatment: DMSO) of 3.21 ± 0.26 and a protein stability index (treatment: MLN4924 1 uM, 8 h) of 3.6 ± 0.19.
On to IKSIVEASKGCQLGKTEQGFENMD [TRIM63], for which the protein stability index (treatment: DMSO) is 4.54 ± 0.31 and the protein stability index (treatment: MLN4924 1 uM, 8 h) was 4.38 ± 0.33.
For ILALELICSLICLLIYTVKIRRFN [TMEM192], in that order: 3.42 ± 0.29 and 3.2 ± 0.41.
For IMNIEPAILVMHHSMKPHPAITAT [INTS3], in that order: 2.24 ± 0.38 and 2.22 ± 0.16.
In the same order, the values of IPLYPLGCLAEAVSVIQSIPIFNE [HACD3] are 2.7 ± 0.47 and 2.97 ± 0.81.
With IQDLCEMLGKYGSSLEFTELLTLV [CASP6], the protein stability index reads like this: (treatment: DMSO) 2.34 ± 0.34; (treatment: MLN4924 1 uM, 8 h) 2.15 ± 0.26.
For IQENQRNLYEEGRTAFLWRGNVVL [TRIM43], in that order: 2.21 ± 0.43 and 2.61 ± 0.37.
For IQKNYECANFGDQGITMGCWDMYR [LOXL2], in that order: 2.06 ± 0.45 and 2.13 ± 0.25.
